Test results published in the RNAGym collection of RNA variant scans (doi:10.7554/elife.80360).

B1: CPEB3 Ribozyme (parent)
chain: GGGGGCCACAGCAGAAGCGUUCACGUCGCGGCCCCUGUCAGAUUCUGGUGAAUCUGCGAAUUCUGCUGU

Variants of: B1
Test: self-cleavage, relative activity (ratio to wild type); higher = more cleavage; co-transcriptional

| Variant | self-cleavage |
| --- | --- |
| G41U C57A | 0.303 |
| A40C G47C | 0.794 |
| G41A C63A | 0.329 |
| C39A G58C | 0.907 |
| G41C C54G | 0.98 |
| G41C C54A | 0.931 |
| G41C C54U | 0.906 |
| G41U A59U | 0.453 |
| G41U U69C | 0.697 |
| G41A A52C | 0.388 |
| C39U G68A | 0.99 |
| A40U A59C | 0.285 |
| G41U U44C | 0.366 |
| C39U U44C | 0.514 |
| C39U U44G | 0.693 |
| A40C G68U | 0.806 |
| A40C G68C | 0.749 |
| G41C U61A | 0.484 |
| G41A G58A | 0.906 |
| G41A G58U | 0.921 |
| G41A G58C | 0.86 |
| U38G A52U | 0.156 |
| G41U G48A | 0.998 |
| C39U A51G | 0.892 |

| Variant | self-cleavage |
| --- | --- |
| C39U A51C | 0.737 |
| C39G G58C | 0.929 |
| G41U A52U | 0.526 |
| C39G C63G | 0.513 |
| A40U G50U | 0.749 |
| G41A A59G | 0.774 |
| G41A A59U | 0.332 |
| G41A U49A | 0.885 |
| U38C U69G | 1.05 |
| G41C G56C | 0.417 |
| C39U U53A | 0.582 |
| C39G A40G | 0.812 |
| C39G G50U | 0.957 |
| C39G G50A | 0.962 |
| A40U U43G | 0.299 |
| A40G A42C | 0.81 |
| G41U A60C | 0.414 |
| C39A U62G | 0.428 |
| C39A U62C | 0.595 |
| G41C U53G | 0.552 |
| C39A U64A | 0.467 |
| C39A U64G | 0.61 |
| U38C U67G | 0.925 |
| A40U U44A | 0.609 |

| Variant | self-cleavage |
| --- | --- |
| C39G U43C | 0.75 |
| G41U C63A | 0.37 |
| G41U C63G | 0.43 |
| C39U G50A | 0.91 |
| A40G U44A | 0.907 |
| A40C G58A | 0.659 |
| A40U A52U | 0.477 |
| A40U A52C | 0.561 |
| A40C C63A | 0.321 |
| G41U C66U | 0.75 |
| G41U U67A | 0.888 |
| G41U U67G | 0.865 |
| C39G U61C | 0.394 |
| G41A | 0.906 |
| G41C | 0.891 |
| G41U | 0.928 |
| A40U U61C | 0.258 |
| A40U U61A | 0.5 |
| U38G C63U | 0.229 |
| U38G C63G | 0.224 |
| G41U G56U | 0.343 |
| G41U G56C | 0.357 |
| A40U G58C | 0.881 |
| A40U G58U | 0.931 |

| Variant | self-cleavage |
| --- | --- |
| A40U G58A | 0.797 |
| C39A A51U | 0.728 |
| G41C A59U | 0.271 |
| A40C U67C | 0.539 |
| A40C A60C | 0.34 |
| A40C A60G | 0.225 |
| G41C G50C | 0.325 |
| G41C G50U | 0.698 |
| G41C G50A | 0.693 |
| A40G G65U | 0.519 |
| A40G C66G | 0.67 |
| G41A U61C | 0.257 |
| A40C C57U | 0.287 |
| C39U U69G | 1.05 |
| C39U U69A | 0.94 |
| C39U A40U | 0.624 |
| U38G U46G | 0.308 |
| U38G C54U | 0.29 |
| U38G C54G | 0.302 |
| G41U G47A | 1.02 |
| A42C C63U | 0.926 |
| A40C C54G | 0.323 |
| G41A G68A | 0.979 |
| A40C U55G | 0.951 |

| Variant | self-cleavage |
| --- | --- |
| G41C C66U | 0.75 |
| G41C C66A | 0.285 |
| A40U C57U | 0.302 |
| A40U C57A | 0.333 |
| C39A A42U | 0.551 |
| G41A G65A | 0.482 |
| C39U U49C | 0.927 |
| C39G U67A | 0.927 |
| C39G U67G | 0.965 |
| A40U C54A | 0.435 |
| A40U G41U | 0.664 |
| A40U G41C | 0.592 |
| A40C U44A | 0.417 |
| A40C U44C | 0.368 |
| A40C U44G | 0.419 |
| U38G A40G | 0.257 |
| U38G A40C | 0.17 |
| U38G A40U | 0.179 |
| A42C G65C | 0.474 |
| A42C G65U | 0.574 |
| C39A U43G | 0.295 |
| U38G G65C | 0.161 |
| A40G A52C | 0.87 |
| A40G A52G | 0.903 |

| Variant | self-cleavage |
| --- | --- |
| A40G A52U | 0.851 |
| C39U U46A | 0.934 |
| U38G C45G | 0.27 |
| A40U G47A | 0.885 |
| A40U G47U | 0.912 |
| C39U U43A | 0.49 |
| C39U U43G | 0.405 |
| U38G | 0.242 |
| C39A G41A | 0.383 |
| C39A G41C | 0.396 |
| U38G C39G | 1.01 |
| U38G C39U | 0.322 |
| U38G U44A | 0.149 |
| A40G U67A | 0.941 |
| C39A U61A | 0.601 |
| U38C U62A | 0.791 |
| A40C A51C | 0.359 |
| C39G U46C | 0.903 |
| A42C C66A | 0.57 |
| U38G G48A | 0.21 |
| A40G U62A | 0.837 |
| A40G U62G | 0.858 |
| C39G C66A | 0.531 |
| G41U G65C | 0.272 |

| Variant | self-cleavage |
| --- | --- |
| A40G G68U | 0.987 |
| A40U C63A | 0.364 |
| G41C G65C | 0.316 |
| G41A U53C | 0.318 |
| G41C U49G | 0.899 |
| A40U A60G | 0.47 |
| C39A G47C | 0.945 |
| C39U A42U | 0.736 |
| G41A G47A | 0.979 |
| G41A G47U | 0.98 |
| A42C U43C | 0.777 |
| A40C G48C | 0.716 |
| A40C G48A | 0.882 |
| U38G G47C | 0.201 |
| A40U U53G | 0.378 |
| A40U U53A | 0.302 |
| G41A G48C | 0.876 |
| G41A G48U | 0.987 |
| A40G C54A | 0.701 |
| A40G C54G | 0.656 |
| A42C G56A | 0.812 |
| A40U G48A | 0.977 |
| A40G A59U | 0.691 |
